Values of other authors, collected in publication PMC7488417.

Molecular target: cJun LZ (Homo sapiens) (UniProt P05412)
Test: ITC

Chain of cJun LZ (Homo sapiens) (P05412 277-308): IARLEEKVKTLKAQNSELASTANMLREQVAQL
Chain of cFos LZ (P01100 162-193): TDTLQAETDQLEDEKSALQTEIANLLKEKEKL

With cFos LZ (from UniProt P01100) as the substance, how does the Kd read?
Its Kd is 26.6 µM.
